B1: ZNF263 (parent)
chain: PEASHLRFRRFRFQEAAGPREALS

Variants of: B1
Assay: protein stability index of a GFP-peptide fusion (GPS, HEK-293T) (PSI 1-6); higher = more stable
Details: c terminus: a fixed tail appended
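Further: lentivirally expressed fusions sorted by FACS into six bins by GFP to DsRed ratio, PSI derived from sequencing read proportions per bin multiplied by bin number.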

Protein stability index: each site, then its substitutions
F11: D 3.66; I 3.1; N 4.33; H 4.01
L23: R 3.11; Q 2.97; Y 1.71; F 2.58; P 2.9; N 3.15; S 3.28
P19: K 2.73; Q 3.18; C 2.21; N 2.63; W 2.04; S 2.87; H 2.73; A 2.71; R 2.71; D 2.8
R20: S 2.58; K 2.38; T 2.65; D 2.9; A 3.17; N 2.99; M 2.21; Y 1.49; L 2.29; P 2.24
A17: K 2.94; R 2.15; S 2.54; H 2.33; D 3.42; G 2.58; F 1.88; Y 2.04; P 2.55; M 2.1
A22: C 2.65; V 2.15; Y 2.29; W 2.03; I 2.28; E 3.15; D 3.38; N 2.87
P1: V 1.85; G 2.8; E 2.97; D 2.65; T 2.44; F 3.44; K 2.38
F13: D 4.81; V 3.61; Q 4.18; M 3.59; G 4.17
G18: D 2.64; P 3.36; M 2.7
A3: I 2.52; E 2.82; P 2.87; M 3.55; S 2.59; T 2.52; R 2.71
E15: F 1.53; W 2.15; A 2.73; D 2.09; V 2.12
F8: T 3.4; V 3.06; D 3.08; N 3.46; A 3.28; E 3.98; I 3.43
R10: L 2.49; T 2.93; Y 1.91; S 2.72; W 3.23; G 2.62; D 3.29; C 2.28
L6: H 3.46; W 2.37; Q 3.63; E 3.61; T 1.98; K 2.73
R9: K 2.82; Y 1.96; T 3.32; M 2.78; C 2.44; D 2.69; V 2.21; F 2.29
R12: H 3.14; T 3.59; P 3.39; G 3.28; F 2.19; V 3.61
R7: Y 2.36; G 3.45; Q 2.75; D 2.78; N 3.08; T 3.66; S 2.68; I 1.8; V 2.65
Q14: V 2.5; H 1.16; N 3; M 2.93; L 3.22; K 3.34
E2: W 1.52; M 1.75; L 1.29; Q 2.11; D 3.22; I 1.72
S24: V 2.2; H 2.68; Y 2.37; F 2.07; E 2.79; G 2.3; Q 2.49; W 2.37; R 2.69
E21: T 2.66; F 2.34; V 1.85; N 2.71; Y 2.58; A 2.56; C 2.14; I 2.04
S4: G 2.76; T 2.76; A 2.4; V 1.93; F 1.87; P 3.78; C 2.87
H5: F 2.12; E 2.47; R 2.68; T 2.89; I 1.91; D 3.21
A16: S 3.54; K 2.61; P 3.25; F 1.59; T 2.11
